Patent publication US20260356943 (published 2026)
One block for each binder: values may come before it.

Experiments:
human ROR1 [1] = target: T1, human ROR1 (human, UniProt Q01973); assay: ELISA, stored 4C
human ROR1 [2] = target: T1, human ROR1; assay: ELISA, stored 37C 2 weeks
human ROR1 [3] = target: T1, human ROR1; assay: SPR, 25C, bivalent analyte
human B7-H3 [4] = target: T2, human B7-H3 (human, UniProt Q5ZPR3); assay: ELISA, stored 4C
T2 chain: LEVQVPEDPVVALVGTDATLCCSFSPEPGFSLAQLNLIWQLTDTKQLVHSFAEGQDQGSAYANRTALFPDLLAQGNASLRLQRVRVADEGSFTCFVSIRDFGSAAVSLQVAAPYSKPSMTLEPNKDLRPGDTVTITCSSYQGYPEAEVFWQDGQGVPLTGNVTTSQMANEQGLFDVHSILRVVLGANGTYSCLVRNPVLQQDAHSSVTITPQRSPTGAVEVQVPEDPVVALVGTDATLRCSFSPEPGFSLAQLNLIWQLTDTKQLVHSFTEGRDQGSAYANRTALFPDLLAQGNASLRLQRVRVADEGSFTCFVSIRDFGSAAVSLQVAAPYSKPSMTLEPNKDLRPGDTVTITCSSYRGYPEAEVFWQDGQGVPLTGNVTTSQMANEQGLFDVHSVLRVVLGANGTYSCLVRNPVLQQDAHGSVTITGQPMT

human B7-H3 [5] = target: T2, human B7-H3; assay: ELISA, stored 40C 2 weeks
human ROR1 [6] = target: T1, human ROR1; assay: ELISA, human serum 0 day
human ROR1 [7] = target: T1, human ROR1; assay: ELISA, human serum 7 days
human ROR1 [8] = target: T1, human ROR1; assay: ELISA, human serum 2 days
human ROR1 [9] = target: T1, human ROR1; assay: ELISA, monkey serum 0 day
human ROR1 [10] = target: T1, human ROR1; assay: ELISA, monkey serum 2 days
human ROR1 [11] = target: T1, human ROR1; assay: ELISA, human serum 14 days
human ROR1 [12] = target: T1, human ROR1; assay: ELISA, monkey serum 7 days
human ROR1 [13] = target: T1, human ROR1; assay: ELISA, monkey serum 14 days
human ROR1 [14] = target: T1, human ROR1; assay: ELISA, dual-antigen capture ROR1/4-1BB
human ROR1 [15] = target: T1, human ROR1; assay: ELISA, human serum 3 days
human ROR1 [16] = target: T1, human ROR1; assay: ELISA, monkey serum 3 days
human ROR1 [17] = target: T1, human ROR1; assay: ELISA, stored 4C; remark: listed apart in the source
human ROR1 [18] = target: T1, human ROR1; assay: ELISA, stored 40C 2 weeks
human 4-1BB = human 4-1BB (human, UniProt Q07011); assay: SPR, 25C
Chain of human 4-1BB (Q07011 24-186): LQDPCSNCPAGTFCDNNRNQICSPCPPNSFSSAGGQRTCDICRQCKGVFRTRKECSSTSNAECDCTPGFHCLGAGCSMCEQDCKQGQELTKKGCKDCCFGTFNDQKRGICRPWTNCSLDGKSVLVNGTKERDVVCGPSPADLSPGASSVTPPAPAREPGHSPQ

T1 sequence (Q01973 30-403): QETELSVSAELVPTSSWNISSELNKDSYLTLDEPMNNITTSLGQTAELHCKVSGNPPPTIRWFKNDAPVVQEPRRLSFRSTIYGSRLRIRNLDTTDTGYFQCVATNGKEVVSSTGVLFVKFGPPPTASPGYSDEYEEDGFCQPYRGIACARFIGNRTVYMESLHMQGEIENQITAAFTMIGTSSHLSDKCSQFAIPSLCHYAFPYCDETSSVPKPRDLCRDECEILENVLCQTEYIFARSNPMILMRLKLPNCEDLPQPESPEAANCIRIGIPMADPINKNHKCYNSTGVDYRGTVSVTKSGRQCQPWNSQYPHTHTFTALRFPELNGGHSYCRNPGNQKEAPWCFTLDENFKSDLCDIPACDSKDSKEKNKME

EC50 (human ROR1 [1]): 0.166 nM
EC50 (human ROR1 [2]): 0.129 nM
B1: BA6M11 IgG (antibody, V domains shown)
VH: EVQLLESGGGLVQPGGSLRLSCAASGFTFSNYDMSWVRQAPGKGLEWVSAIYHSGSSKYYADSVKGRFTISRDNSKNTLYLQMNSLRAEDTAVYYCARGGSGAWDTGFDYWGQGTLVTVSS
VL: QSVLTQPPSASGTPGQRVTISCSGSSSNIGSNDVSWYQQLPGTAPKLLIYYENNRPSGVPDRFSGSKSGTSASLAISGLRSEDEADYYCGAWDDSLSGYVFGGGTKLTVL

Kd (human ROR1 [3]): 6.05 nM
B2: BA6M11(WT)x1A10M12 ROR1 arm (antibody, V domains shown)
VH: EVQLLESGGGLVQPGGSLRLSCAASGFTFSNYDMSWVRQAPGKGLEWVSAIYHSGSSKYYADSVKGRFTISRDNSKNTLYLQMNSLRAEDTAVYYCARGGSGAWDTGFDYWGQGTLVTVSS
VL: QSVLTQPPSASGTPGQRVTISCSGSSSNIGSNDVSWYQQLPGTAPKLLIYYENNRPSGVPDRFSGSKSGTSASLAISGLRSEDEADYYCGAWDDSLSGYVFGGGTKLTVL

EC50 (human B7-H3 [4]): 0.232 nM
EC50 (human B7-H3 [5]): 0.19 nM
B3: BA6M11xB5 B7-H3 arm (antibody, V domains shown)
VH: EVQLLESGGGLVQPGGSLRLSCAASGFTFSDYAMSWVRQAPGKCLEWVSSISSGSGSIYYADSVKGRFTISRDNSKNTLYLQMNSLRAEDTAVYYCAKNLIPLDYWGQGTLVTVSS
VL: QSVLTQPPSASGTPGQRVTISCSGSSSNIGSNAVSWYQQLPGTAPKLLIYYNSHRPSGVPDRFSGSKSGTSASLAISGLRSEDEADYYCGSWDASLNAYVFGCGTKLTVL

EC50 (human ROR1 [6]): 0.228 nM
EC50 (human ROR1 [7]): 0.42 nM
EC50 (human ROR1 [8]): 0.365 nM
EC50 (human ROR1 [9]): 0.24 nM
EC50 (human ROR1 [10]): 0.36 nM
EC50 (human ROR1 [11]): 0.457 nM
EC50 (human ROR1 [12]): 0.427 nM
EC50 (human ROR1 [13]): 0.419 nM
EC50 (human ROR1 [14]): 0.386 nM
B4: BA6x1A10M12 ROR1 arm (antibody, V domains shown)
VH: EVQLLESGGGLVQPGGSLRLSCAASGFTFSNYDMSWVRQAPGKGLEWVSAIYHSGSSKYYADSVKGRFTISRDNSKNTLYLQMNSLRAEDTAVYYCARGGNGAWDTGFDYWGQGTLVTVSS
VL: QSVLTQPPSASGTPGQRVTISCSGSSSNIGSNDVSWYQQLPGTAPKLLIYYDNNRPSGVPDRFSGSKSGTSASLAISGLRSEDEADYYCGAWDDSLSGYVFGGGTKLTVL

EC50 (human ROR1 [1]): 0.217 nM
EC50 (human ROR1 [2]): 0.261 nM
B5: BA6 IgG (WT) (antibody, V domains shown)
VH: EVQLLESGGGLVQPGGSLRLSCAASGFTFSNYDMSWVRQAPGKGLEWVSAIYHSGSSKYYADSVKGRFTISRDNSKNTLYLQMNSLRAEDTAVYYCARGGNGAWDTGFDYWGQGTLVTVSS
VL: QSVLTQPPSASGTPGQRVTISCSGSSSNIGSNDVSWYQQLPGTAPKLLIYYDNNRPSGVPDRFSGSKSGTSASLAISGLRSEDEADYYCGAWDDSLSGYVFGGGTKLTVL

EC50 (human ROR1 [6]): 0.211 nM
EC50 (human ROR1 [7]): 0.236 nM
EC50 (human ROR1 [9]): 0.208 nM
EC50 (human ROR1 [15]): 0.22 nM
EC50 (human ROR1 [11]): 0.233 nM
EC50 (human ROR1 [12]): 0.257 nM
EC50 (human ROR1 [16]): 0.238 nM
Kd (human ROR1 [3]): 6.65 nM
EC50 (human ROR1 [13]): 0.273 nM
EC50 (human ROR1 [14]): 0.268 nM
B6: BA6M11(NA)x1A10M12 ROR1 arm (antibody, V domains shown)
VH: EVQLLESGGGLVQPGGSLRLSCAASGFTFSNYDMSWVRQAPGKGLEWVSAIYHSGSSKYYADSVKGRFTISRDNSKNTLYLQMNSLRAEDTAVYYCARGGSGAWDTGFDYWGQGTLVTVSS
VL: QSVLTQPPSASGTPGQRVTISCSGSSSNIGSNDVSWYQQLPGTAPKLLIYYENNRPSGVPDRFSGSKSGTSASLAISGLRSEDEADYYCGAWDDSLSGYVFGGGTKLTVL

EC50 (human ROR1 [17]): 0.152 nM
EC50 (human ROR1 [18]): 0.134 nM
B7: BA6M11xB5 ROR1 arm (antibody, V domains shown)
VH: EVQLLESGGGLVQPGGSLRLSCAASGFTFSNYDMSWVRQAPGKGLEWVSAIYHSGSSKYYADSVKGRFTISRDNSKNTLYLQMNSLRAEDTAVYYCARGGSGAWDTGFDYWGQGTLVTVSS
VL: QSVLTQPPSASGTPGQRVTISCSGSSSNIGSNDVSWYQQLPGTAPKLLIYYENNRPSGVPDRFSGSKSGTSASLAISGLRSEDEADYYCGAWDDSLSGYVFGGGTKLTVL

EC50 (human ROR1 [17]): 0.141 nM
EC50 (human ROR1 [18]): 0.18 nM
B8: BA6xB5 ROR1 arm (antibody, V domains shown)
VH: EVQLLESGGGLVQPGGSLRLSCAASGFTFSNYDMSWVRQAPGKGLEWVSAIYHSGSSKYYADSVKGRFTISRDNSKNTLYLQMNSLRAEDTAVYYCARGGNGAWDTGFDYWGQGTLVTVSS
VL: QSVLTQPPSASGTPGQRVTISCSGSSSNIGSNDVSWYQQLPGTAPKLLIYYDNNRPSGVPDRFSGSKSGTSASLAISGLRSEDEADYYCGAWDDSLSGYVFGGGTKLTVL

EC50 (human B7-H3 [4]): 0.173 nM
EC50 (human B7-H3 [5]): 0.186 nM
B9: BA6xB5 B7-H3 arm (antibody, V domains shown)
VH: EVQLLESGGGLVQPGGSLRLSCAASGFTFSDYAMSWVRQAPGKCLEWVSSISSGSGSIYYADSVKGRFTISRDNSKNTLYLQMNSLRAEDTAVYYCAKNLIPLDYWGQGTLVTVSS
VL: QSVLTQPPSASGTPGQRVTISCSGSSSNIGSNAVSWYQQLPGTAPKLLIYYNSHRPSGVPDRFSGSKSGTSASLAISGLRSEDEADYYCGSWDASLNAYVFGCGTKLTVL

Kd (human 4-1BB): 4.53 nM
B10: BA6M11(WT)x1A10M12 4-1BB arm (antibody, V domains shown)
VH: EVQLLESGGGLVQPGGSLRLSCAASGFTFSSYDMSWVRQAPGKCLEWVSWISYSGGSIYYADSVKGRFTISRDNSKNTLYLQMNSLRAEDTAVYYCARDAQRNSMREFDYWGQGTLVTVSS
VL: QSVLTQPPSASGTPGQRVTISCSGSSSNIGNNYVTWYQQLPGTAPKLLIYADSHRPSGVPDRFSGSKSGTSASLAISGLRSEDEADYYCATWDYSLSGYVFGCGTKLTVL

Kd (human 4-1BB): 4.5 nM
B11: BA6M11(NA)x1A10M12 4-1BB arm (antibody, V domains shown)
VH: EVQLLESGGGLVQPGGSLRLSCAASGFTFSSYDMSWVRQAPGKCLEWVSWISYSGGSIYYADSVKGRFTISRDNSKNTLYLQMNSLRAEDTAVYYCARDAQRNSMREFDYWGQGTLVTVSS
VL: QSVLTQPPSASGTPGQRVTISCSGSSSNIGNNYVTWYQQLPGTAPKLLIYADSHRPSGVPDRFSGSKSGTSASLAISGLRSEDEADYYCATWDYSLSGYVFGCGTKLTVL
